In patent US20080089931:

Target: EphA2 receptor tyrosine kinase (UniProt P29317)
Sequence of UniProt P29317 (P29317 whole entry, looked up): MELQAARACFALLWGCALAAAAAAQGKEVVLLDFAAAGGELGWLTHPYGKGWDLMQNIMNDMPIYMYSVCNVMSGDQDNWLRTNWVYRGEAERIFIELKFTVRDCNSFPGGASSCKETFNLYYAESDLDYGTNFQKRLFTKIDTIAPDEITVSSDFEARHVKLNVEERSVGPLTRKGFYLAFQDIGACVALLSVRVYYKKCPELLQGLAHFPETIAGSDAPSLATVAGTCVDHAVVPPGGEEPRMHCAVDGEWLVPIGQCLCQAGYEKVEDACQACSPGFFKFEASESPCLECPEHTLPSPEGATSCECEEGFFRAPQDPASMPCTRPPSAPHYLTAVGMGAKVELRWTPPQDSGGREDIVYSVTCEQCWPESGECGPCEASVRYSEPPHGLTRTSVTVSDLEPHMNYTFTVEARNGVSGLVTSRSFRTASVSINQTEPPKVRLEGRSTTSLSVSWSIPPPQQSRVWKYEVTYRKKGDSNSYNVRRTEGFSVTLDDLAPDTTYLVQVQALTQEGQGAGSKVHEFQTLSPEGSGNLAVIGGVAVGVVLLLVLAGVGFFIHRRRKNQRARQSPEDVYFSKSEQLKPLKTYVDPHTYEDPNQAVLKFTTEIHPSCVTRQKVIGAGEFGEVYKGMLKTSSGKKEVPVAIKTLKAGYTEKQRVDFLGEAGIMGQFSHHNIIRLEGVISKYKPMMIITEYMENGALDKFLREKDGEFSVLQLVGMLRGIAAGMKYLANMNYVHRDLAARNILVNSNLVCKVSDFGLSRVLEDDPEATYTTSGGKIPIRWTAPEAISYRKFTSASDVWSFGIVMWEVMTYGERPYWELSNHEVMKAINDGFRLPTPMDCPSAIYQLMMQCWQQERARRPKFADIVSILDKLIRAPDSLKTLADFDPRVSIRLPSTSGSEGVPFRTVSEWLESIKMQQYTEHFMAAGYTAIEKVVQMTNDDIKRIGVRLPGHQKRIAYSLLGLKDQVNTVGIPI

Substance: purified LMW-PTP protein
- dephosphorylation of immunoprecipitated EphA2 (phosphotyrosine Western blot): the LMW-PTP dephosphorylated EphA2 in an enzyme concentration-dependent and a time-dependent manner
